To fix the notation:
T1: murine HVEM (murine, UniProt Q80WM9 39-206, limits assumed)
T1 construct: also called Mouse
T1 sequence (looked up): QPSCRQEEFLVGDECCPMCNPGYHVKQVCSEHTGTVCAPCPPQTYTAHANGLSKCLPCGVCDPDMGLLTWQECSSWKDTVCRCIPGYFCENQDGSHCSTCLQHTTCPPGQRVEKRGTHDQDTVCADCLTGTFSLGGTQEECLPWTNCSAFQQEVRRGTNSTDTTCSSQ

T2: human HVEM (human, UniProt Q92956 39-202, limits assumed)
T2 sequence (looked up): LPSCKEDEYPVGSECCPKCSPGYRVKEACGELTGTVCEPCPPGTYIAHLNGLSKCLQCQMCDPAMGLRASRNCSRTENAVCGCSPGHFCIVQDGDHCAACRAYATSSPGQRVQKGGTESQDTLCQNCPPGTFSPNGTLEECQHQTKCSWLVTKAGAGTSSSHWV

T3: cynomolgus monkey HVEM (cynomolgus monkey, UniProt A0A2K5W0R1 39-203)
T3 sequence: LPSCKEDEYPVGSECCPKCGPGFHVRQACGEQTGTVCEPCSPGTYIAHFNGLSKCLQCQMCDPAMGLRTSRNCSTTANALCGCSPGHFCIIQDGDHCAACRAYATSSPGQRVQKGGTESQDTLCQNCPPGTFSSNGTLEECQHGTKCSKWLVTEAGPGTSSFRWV

T4: Human HEVM recombinant protein (Sino Biological, 10334-H02H) (human, UniProt Q92956 39-202)
T4 construct: construct known only by catalogue number; also called HVEM; human HVEM
T4 sequence (looked up): T2 sequence (looked up)

T5: His-tagged human HVEM (human, UniProt Q92956 39-202, limits assumed)
T5 construct: Analyte of the BLI assay, 200 nM in PBS; not shown: His tag
T5 sequence (looked up): T2 sequence (looked up)

B1: Ab_077 (H5S20-31A16B) (antibody, V domains shown)
VH: EVQLQQSGAELVRSGASVKLSCTTSGFNIKDYYMHWVKQRPEQGLEWIGWIDPENGDTEYAPKFQGKATMTADTSSNTAYLQLSSLTSEDTAVYYCNSRTLGYWGQGTLVTVSA
VL: QIVLTQSPALMSASPGEKVTMTCSASSSVSFIYWYQQKPRSSPKPWIYLTSNLASGVPARFSGSGSGTSYSLTISSMEAEDAATYYCQQWSSNPLTFGAGTKLEL
notes: also called Ab_77
B2: Ab_073 (H5S20-9A9A) (antibody, V domains shown)
VH: EVQLQQSGADLVKPGASVKLSCTASGFNIRDTYMHWVNQRPEQGLEWIGRIDPANGNTKYAPKFQGRATITADTSSNTAYLHLSSLTSEDTAVYYCAGYGNSPWFAYWGQGTLVTVSA
VL: DVLMTQTPLSLPVNLGDQASISCRSSQSIVHSNGNTYLEWYLQKPGQSPKLLIYKVSNRFSGVPDRFSGSGSGTDFTLKISRVEAEDLGVYYCFQGSHVPLTFGAGTKLELK
notes: also called Ab_73
B3: Ab_083 (H5S20-49A39A) (antibody, V domains shown)
VH: EVQLQQSGAELVKPGASVKLSCTASGFNIKDTYVHWVKERPEQGLEWIGRIDPANDNTKYAPKFQVKATITADTSSNTAYLQLSSLTSEDNAVYYCAPYGNYPAWFAYWGQGTLVTVSA
VL: B2 VL with N14S, A19V, S28N
notes: also called Ab_153; Ab_83
B4: Ab_074 (H5S20-52A21A) (antibody, V domains shown)
VH: B2 VH with D10E, R30K, M34I, V37L, N57K, Y60F, G66D, R67K, H82Q
VL: B2 VL with N14S, F60V
notes: also called Ab_74
B5: Ab_034 (H5S15-16A11B) (antibody, V domains shown)
VH: DVQLVESGGGLVQPGGSRKLSCAASGFTFSSFGMHWVRQAPEKGLEWVAHISSGSSTIYYADTVKGRFTISRDNPKNTLFLQMTSLRSEDTAMYYCARGAYGNFAWFPYWGQGTLVTVSA
VL: DVVMTQTPLSLSVSLGDQASISCRSSQSLVHSNGNTYLHWYLQKPGQSPKLLIYKVSNRFSGVPDRFSGSGSGTDFTLKISRVEAEDLGVYFCSQSTHVPTFGSGTKLEIK
notes: also called Ab_34
B6: Ab_035 (H5S15-9A10A) (antibody, V domains shown)
VH: B5 VH with S31D
VL: B5 VL with S12P, S32T, K50R, S70G
notes: also called Ab_35
B7: Ab_008 (H5S14-11A10A) (antibody, V domains shown)
VH: EVKLVESGGGLVKPGGSLRLSCAASGFTFSSFAMSWIRQTPEKGLEWVASITTGGSSYSPDSLKGRFTISRDNVRNIVYLQMSSLRSEDTAMYACARGGGGNYFWFAYWGQGTLVTVSA
VL: DVVMTQTPLSLPVSLGDQASISCRSSQSLVHSNGNTYLHWYLQKPGQSPKLLIYKVSNRFSGVPDRFSGSGSGTDFTLKISRVEAEDLGVYFCSQSIHVPFTFGSGTKLEIK
notes: also called Ab_8
B8: Ab_055 (H5S19-1A1A) (antibody, V domains shown)
VH: DVQLQESGPGLVKPSQSLSLTCTVTGYSITSDYAWNWIRQFPGNKLEWMGYIAYSGGTSYSPSLKSRISITRDTSKNQFFLQLNSVTTEDTATYYCVYFKYGGAFAYWGQGTLVTVSA
VL: NIVLTQSPASLAVSLGQRATISCRASESVDSYGNSLMHWYQQKPGQPPKLLIYLASNLESGVPARFSGSGSRTDFTLTIDPVEADDAATYYCQQNNEDPPTFGGGTKLEI
notes: also called Ab_55
B9: Ab_052 (H5S19-18A17B) (antibody, V domains shown)
VH: QVQLKESGPGLVAPSQSLSITCTVSGFSLTIYGVHWVRQPPGKGLEWLGVIWAGGIINYNSALMSRLSISKDNSKSQVFLKMNSLQSDDTAMYYCARDWERDSSGPFAYWGQGTLVTVSA
VL: DIQMTQTTSSLSASLGDRVTISCSASQGISNYLNWYQQKPDGTVKLLIYYTSSLHSGVPSRFRGSGSGTDYSLTISNLEPEDIATYYCQQYSKLPWTFGGGTKLEIK
notes: also called Ab_52
B10: Ab_079 (H5S20-22A18A) (antibody, V domains shown)
VH: EVQLQQSGAELVKPGASVKLSCTASGFNIKDTYMHWVKQRPEQGLEWIGRIDPANGNTKYAPKFQGKATITADTSSNTAYLQLSSLTSEDTAVYYCARSFGNYFDYWGQGTTLTVSS
VL: NIVLTQSPASLAVSLGQRATISCRASESVDSYGNSFMHWYQQKPGQPPKLLIYLASNLESGVPARFSGSGSRTDFTLTIDPVEADDAATYYCQQNYADPWTFGGGTKLEIK
notes: also called Ab_79
B11: Ab_058 (H5S19-6A8A) (antibody, V domains shown)
VH: EVQLVESGGGLVKPGGSLKLSCAASGFTFNIYTMSWVRQSPEMRLEWVAEISSGGSHTYYPDTVTGRFTISRDNAKNTLYLEMSSLRSEDTAIYYCARGGSLFDYWGQGTTLTVSS
VL: DVQITQSPSYLAASPGETITINCRTSKNISKYLAWYQEKPGKTNKLLIYSGSTLQSGIPSRFSGSGSGTDFTLTISSLEPEDFVMYHCQQHNEYPWTFGGGTKLEIK
notes: also called Ab_58

Usually IC50 stands for the concentration that gives 50% inhibition. The Kd is a measure of binding affinity in units of concentration. The term koff denotes the first-order rate constant of dissociation. One may read the kon as the rate constant with which the complex forms.

Residue numbers refer to the chain shown, from its start.

The first assay concerns the target T1, murine HVEM. As to the kind of experiment: ELISA. On the technique in general: ELISA stands for enzyme-linked immunosorbent assay.
Turning to B1, the ELISA signal stood at 0.043.

In turn, B2 yielded an ELISA signal of 0.045.

On to B3, for which the ELISA signal is 0.043.

The molecule B4 came in with an ELISA signal of 0.044.

Turning to B5, the ELISA signal is 0.045.

B6 showed an ELISA signal of 0.045.

Regarding B7, the ELISA signal was determined as 0.077.

Molecule B8 gave an ELISA signal of 0.042.

Turning to B9, the ELISA signal was 0.042.

Regarding B10, the ELISA signal was 0.054.

For B11, the ELISA signal is 0.043.

Another assay has as its target T2, human HVEM. As to the kind of experiment: ELISA.
B1 registered an ELISA signal of 0.147.

Take B2: the ELISA signal was 3.24.

For B3, the ELISA signal is 3.19.

Molecule B4 returned an ELISA signal of 3.26.

Consider B5, for which the ELISA signal came out at 3.19.

Molecule B6 gave an ELISA signal of 3.2.

B7 returned an ELISA signal of 3.4.

Molecule B8 came in with an ELISA signal of 2.95.

Turning to B9, the ELISA signal is 2.88.

In turn, B10 returned an ELISA signal of 2.97.

B11: the ELISA signal turned out to be 3.16.

A further assay addresses T3, cynomolgus monkey HVEM. The experiment in a line: ELISA.
On to B1, for which the ELISA signal is 0.079.

Consider B2, for which the ELISA signal came out at 0.062.

Turning to B3, the ELISA signal turned out to be 0.06.

Take B4: the ELISA signal is 0.06.

For B7, the ELISA signal turned out to be 2.94.

B8 had an ELISA signal of 2.21.

B9: the ELISA signal amounted to 2.32.

Molecule B10 displayed an ELISA signal of 0.062.

The molecule B11 showed an ELISA signal of 0.064.

In a further assay the target is T4, Human HEVM recombinant protein (Sino …). As to the kind of experiment: competition ELISA, competitor BTLA-His. On the procedure:
The competitive activity of HVEM antibody to BTLA or LIGHT was evaluated with ELISA-based competitive assay. Briefly Human HEVM recombinant protein (Sino Biological, 10334-H02H, 4 ug/ml, 100 ul/well) was coated to ELISA plate (Thermo Scientific, 469949, 4C overnight). A pre-mixture of HVEM antibody clone with seral dilution and 400 nM BTLA-His (R&D systems, 9235-BT-050) or LIGHT-His (SinoBiological, 10386-H07H) recombinant protein was made and added to the ELISA plate after blocking with 3% BSA (200 ul/well, RT 2 Hr) for 1 Hr at RT. The serial dilutions of HVEM antibody clone involve 7 different concentrations, with a 3-fold dilution performed start from 100 nM for BTLA or 325 nM for LIGHT competitive assay. The concentration was the final concentration. Plate was washed with PBST; diluted HRP-anti-His (Biolegend, 652504, 1:1000) with PBS containing 5% FBS was added 100 ul per well for 1 Hr at RT. TMB substrate (KPL, 52-00-00) 100 ul per well after washing and incubate at room temperature for 15 minutes; then stop the development by adding 100 ul stop solution (KPL, 50-85-06). Plate was read at 450 nm. The IC50 was calculated using GraphPad Prism software (GraphPad Software, Inc. San Diego, CA, USA).
B2: the IC50 came to 3.2 nM.

In the case of B3, the IC50 came to 1.9 nM.

For B4, the IC50 was found to be 1.6 nM.

As for B5, the IC50 was 1.3 nM.

Turning to B6, the IC50 was found to be 1.4 nM.

Regarding B7, the concentration for half-maximal inhibition (IC50) was determined as 1.9 nM.

For B10, the half-maximal inhibitory concentration (IC50) is 11 nM.

In the case of B11, the IC50 came out at 1.3 nM.

A further assay addresses T5, His-tagged human HVEM. The experiment in a line: BLI OctetRed96, mAb captured, 200 nM His-HVEM. On the procedure: Binding of antibodies to HVEM may also be determined by bio-layer interferometry (BLI) on an OctetRed96@ system (Sartorius). (See http://www.fortebio.com/bli_technology.html for general description of a BLI assay.) For this experiment, murine anti-human HVEM antibodies were captured from culture supernatant using anti-mouse IgG Fc capture and immobilized to dip and read biosensors. Sensors were then dipped into a solution of 200 nM His-tagged human HVEM in phosphate-buffered saline (PBS). Probes were dipped into PBS assay buffer and the dissociation rate (koff) was measured. The association rate (kₒₙ) and affinity (KD) were determined by curve fitting analysis.
For the molecule B1, the equilibrium dissociation constant (Kd) was 12400 nM, the off-rate constant (koff) was determined as 1.08 s⁻¹ and the kon is 86600 M⁻¹ s⁻¹.

B2 gave a Kd of 370 nM, a koff of 0.109 s⁻¹ and a kon of 294000 M⁻¹ s⁻¹.

In the case of B3, binding was put at a Kd of 65.8 nM, the dissociation rate constant (koff) was found to be 0.0167 s⁻¹ and the on-rate (kon) was determined as 254000 M⁻¹ s⁻¹.

Consider B4, for which the Kd is 48.2 nM, the dissociation rate constant (koff) amounted to 0.0272 s⁻¹ and the kon was 565000 M⁻¹ s⁻¹.

With B5, the Kd worked out at 8.67 nM, the koff turned out to be 0.00235 s⁻¹ and the association rate constant (kon) was 270000 M⁻¹ s⁻¹.

In turn, B6 gave a Kd of 6.58 nM, a koff of 0.00235 s⁻¹ and a kon of 357000 M⁻¹ s⁻¹.

As for B7, the Kd is 4.8 nM, the koff came out at 0.00231 s⁻¹ and the kon is 482000 M⁻¹ s⁻¹.

For B8, the dissociation constant Kd was 544 nM, the koff was 0.0164 s⁻¹ and the on-rate constant (kon) was determined as 30200 M⁻¹ s⁻¹.

B9 had an equilibrium dissociation constant (Kd) of 90.9 nM, a koff of 0.00734 s⁻¹ and an association rate constant (kon) of 80700 M⁻¹ s⁻¹.

The molecule B10 showed a dissociation constant (Kd) of 13.9 nM, a koff of 0.0216 s⁻¹ and an association rate constant (kon) of 1.56e+06 M⁻¹ s⁻¹.

B11: the Kd amounted to 2.67 nM, the koff was found to be 0.00125 s⁻¹ and the on-rate (kon) turned out to be 469000 M⁻¹ s⁻¹.

Source of the values: US20240317871A1 (IMMUNOMIC THERAPEUTICS, published 2024).
